According to the supplement of paper PMC9732359:
± gives the uncertainty stated by the source.

Assay: protein stability index of a GFP-peptide fusion (yeast GPS) (PSI 1-4); higher = more stable; sorted into four equal gates, so the index is relative within each strain
In short: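 The protein stability index combines read frequencies across sorting gates, each weighted by its gate number and then summed. To obtain those frequencies, a pooled yeast library of GFP fusions to tiled 17-residue yeast protein peptides, on a plasmid also expressing Cherry, was grown to mid-log phase in leucine-free medium. The cells were sorted into four equal gates by GFP/Cherry ratio before plasmid amplification by PCR and Illumina sequencing.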

Sequence	protein stability index (doa10∆)	protein stability index (pdr5∆)	protein stability index (san1∆)	protein stability index (ubr1∆)
LTIGVKFFMKHGLILEL [SRB5]	1.71 ± 0.05	1.62 ± 0.052	1.65 ± 0.062	1.94 ± 0.033
QTFEAKLHFKDTKPFLN [NUT1]	2.4 ± 0.074	2.87 ± 0.12	2.62 ± 0.059	2.67 ± 0.043
ETLGLKYLGLKPGSIDA [FAS1]	3.24 ± 0.13	3.24 ± 0.097	3.03 ± 0.076	3.22 ± 0.095
TRDEKDPKRLFEGNALI [RPS9A]	3.55 ± 0.2	3.6 ± 0.12	2.97 ± 0.18	3.71 ± 0.15
LIAHQRSAWNNNNDNDA [GRR1]	2.25 ± 0.049	2.65 ± 0.039	2.62 ± 0.05	2.65 ± 0.039
GAFDQLKQNAIRARIPF [SRP54]	2.69 ± 0.063	2.89 ± 0.06	2.9 ± 0.057	3.03 ± 0.07
QPEDLEPAEANEENDLD [RPB2]	3.35 ± 0.17	3.15 ± 0.19	3.21 ± 0.13	3.42 ± 0.16
SYKMIQLDAYGEKKVGS [SWP82]	3.27 ± 0.093	3.37 ± 0.093	3.35 ± 0.075	3.02 ± 0.072
VSNISCLTGTVAARMFH [ECM29]	1.66 ± 0.042	1.59 ± 0.039	2.28 ± 0.087	2.19 ± 0.045
PSFVKSGKLRDYQVQGL [ISW2]	3.33 ± 0.076	3.39 ± 0.071	3.22 ± 0.039	3.31 ± 0.058
QIKGLQWMVSLFNNHLN [SNF2]	1.79 ± 0.12	1.74 ± 0.097	1.4 ± 0.14	1.36 ± 0.058
RNNHNSNTSTSKMLDAA [SNF12]	3.01 ± 0.058	3.04 ± 0.044	3.22 ± 0.092	3.01 ± 0.048
PLIKKIKYEPRFEKAVK [SMC3]	2.75 ± 0.072	2.72 ± 0.098	2.53 ± 0.13	2.48 ± 0.079
GKGPGCGFWQPAWRVWL [PRP8]	2.58 ± 0.19	–	–	2.1 ± 0.19
TTLGKLSTSVGWKYEDV [RPL16A]	2.87 ± 0.069	3 ± 0.071	2.97 ± 0.078	2.73 ± 0.073
DVKCWSKFIEKFQDIVS [MED1]	1.83 ± 0.12	2.62 ± 0.12	2.09 ± 0.14	1.89 ± 0.1
YDIVKFLTVSKLWAEII [GRR1]	2.05 ± 0.041	2.59 ± 0.038	2.18 ± 0.048	2.44 ± 0.032
GHIVSLELTTGATYRGK [SMD3]	1.98 ± 0.049	2.03 ± 0.049	2.12 ± 0.085	2.34 ± 0.053
GVMSLLQKSSKSMITSE [YAR002W/NUP60]	2.46 ± 0.06	2.61 ± 0.062	2.19 ± 0.076	2.95 ± 0.063
NNNVTAVPAATPANTNN [SWI1]	2.79 ± 0.046	3.08 ± 0.046	2.76 ± 0.032	2.98 ± 0.042
DKEWVFAALSDSYGQGS [SSN2]	3.18 ± 0.11	3.46 ± 0.1	3.1 ± 0.13	3.34 ± 0.09
LPGTNNNSNSNNNSSNE [SEC65]	2.93 ± 0.051	2.69 ± 0.054	2.89 ± 0.042	2.8 ± 0.049
ESDYEPNNETSVLSSKP [SIR3]	2.99 ± 0.089	3.08 ± 0.11	3.02 ± 0.11	3.01 ± 0.07
QLLKEDSEKRNKYAAML [RRP45]	3.13 ± 0.11	2.81 ± 0.089	2.75 ± 0.18	2.97 ± 0.05
KQENETMQPPYIQERLK [MED11]	2.88 ± 0.055	3.06 ± 0.054	3.19 ± 0.04	3.02 ± 0.033
RKHTRGDVSSGLFEKST [BRN1]	2.81 ± 0.16	3.27 ± 0.1	2.5 ± 0.14	–
TENEIPNLIEKMVAKGL [BRR2]	2.85 ± 0.17	2.81 ± 0.13	2.63 ± 0.093	2.78 ± 0.11

Sequence	protein stability index (doa10∆)	protein stability index (pdr5∆)	protein stability index (san1∆)	protein stability index (ubr1∆)
NTIGSVHGKAPMLMANN [SSN3]	1.54 ± 0.18	1.54 ± 0.11	1.48 ± 0.19	1.89 ± 0.19
NFGFGIDEHIDLGIKYD [RPL11A]	2.59 ± 0.1	2.51 ± 0.16	2.39 ± 0.11	2.39 ± 0.11
VDFIKHSLSQAIKWDGS [PRE3]	1.75 ± 0.15	2.29 ± 0.12	1.61 ± 0.26	2.48 ± 0.2
SITLQGDVYDPEGTLSG [SMC2]	2.76 ± 0.16	2.6 ± 0.13	–	2.28 ± 0.12
VTGGKKALVLFVPVPAL [RPS7B]	1.58 ± 0.061	2.03 ± 0.1	2.14 ± 0.11	1.52 ± 0.054
YLKHVSRRFKNGFQTGS [RPL37A]	2.06 ± 0.085	3.23 ± 0.062	3.16 ± 0.084	3.46 ± 0.056
KTLSLKSMASAFGVSVA [RPN7]	–	–	–	1.21 ± 0.13
SKVYYNLGEYESAVKYA [RPN2]	2.62 ± 0.16	2.9 ± 0.093	2.8 ± 0.084	2.84 ± 0.056
EEGYSGVEVRVTPTKTE [RPS3]	2.18 ± 0.16	3.15 ± 0.11	2.88 ± 0.091	3.11 ± 0.08
CDLDFPLRENTNVLDVK [YDL116W/NUP84]	2.72 ± 0.065	2.36 ± 0.055	2.36 ± 0.077	2.56 ± 0.037
FTTNKSKDVSRLLSALG [SRP21]	3.03 ± 0.2	2.41 ± 0.28	–	2.8 ± 0.081
CKLTLDINVELFPVAAQ [RPB8]	2.57 ± 0.063	2.24 ± 0.079	2.43 ± 0.078	2.96 ± 0.05
AKVVVTTSRFSKQVTDY [FAS2]	3.08 ± 0.084	2.71 ± 0.082	3.12 ± 0.055	3.15 ± 0.058
MLDKLMVTSIRSTPNYI [MED6]	2.4 ± 0.064	2.52 ± 0.061	2.43 ± 0.098	2.66 ± 0.05
FNGADIRNCATEAGFFA [RPT4]	3.32 ± 0.065	3.38 ± 0.079	3.3 ± 0.057	3.22 ± 0.048
GAEVDEARINELLSSLE [RPP2B]	3.16 ± 0.11	3.5 ± 0.11	3.22 ± 0.077	3.21 ± 0.1
LDIEKEAPAGNIDTITD [MCD1]	2.84 ± 0.081	3.03 ± 0.066	3.07 ± 0.086	3.08 ± 0.052
LPGDMLAVCDELGNMTM [SIN4]	2.76 ± 0.071	2.77 ± 0.072	2.78 ± 0.089	2.66 ± 0.085
LNEIELDNLKLKELRID [GRR1]	3.28 ± 0.097	3.09 ± 0.11	3.18 ± 0.054	2.85 ± 0.092
ATSTKVSVEGVNVEKFN [RPL6A]	2.88 ± 0.11	3.4 ± 0.11	3.31 ± 0.059	3.16 ± 0.1
AALGMGLCMLGTGKPEA [RPN2]	3.46 ± 0.13	3.32 ± 0.094	3.44 ± 0.066	3.36 ± 0.088
KNVENTKNLSILTSKVN [DSN1]	2.37 ± 0.061	2.36 ± 0.049	2.53 ± 0.077	2.51 ± 0.036
VLRRLLAKYRDAGKIDK [RPL19A]	3.29 ± 0.18	3.37 ± 0.15	–	3.61 ± 0.093
TFDSSWNWAKQSLLSLY [FAS2]	1.47 ± 0.066	1.3 ± 0.058	2.08 ± 0.15	1.58 ± 0.073
SPERFATLGIDPPKGIL [RPT1]	2.74 ± 0.066	2.76 ± 0.058	2.42 ± 0.078	2.77 ± 0.045
NVKEEETVAKSKNAERK [RPS8A]	3.07 ± 0.038	3.09 ± 0.035	3.215 ± 0.022	3.001 ± 0.029
